From patent US20220073581A1 (UCB, published 2022)
Blank lines part the entries; values can stand above or below the binder they belong to.

Tests used:
[1] = biological target: T1, IL-2-Rβ (IL-2 receptor β chain, R&D Systems) (UniProt P14784 27-239); experiment: SPR (Biacore), Fab captured on anti-human F(ab)2, IL-2-Rβ injected
T1 construct: also called IL-2-sRβ
T1 sequence (looked up): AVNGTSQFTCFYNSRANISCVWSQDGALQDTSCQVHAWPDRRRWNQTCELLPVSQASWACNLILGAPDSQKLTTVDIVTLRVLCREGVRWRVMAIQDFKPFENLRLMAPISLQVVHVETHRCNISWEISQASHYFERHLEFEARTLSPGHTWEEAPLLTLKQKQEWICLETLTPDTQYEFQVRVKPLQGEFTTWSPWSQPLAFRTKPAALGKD

[2] = biological target: T2, GM-CSF receptor, cognate for the human GM-CSF constructs (GM-CSF-Ra, R&D Systems) (UniProt P15509 23-320); experiment: SPR (Biacore), Fab captured on anti-human F(ab)2, GM-CSF receptor injected
T2 construct: also called cognate GM-CSF receptor
T2 sequence (looked up): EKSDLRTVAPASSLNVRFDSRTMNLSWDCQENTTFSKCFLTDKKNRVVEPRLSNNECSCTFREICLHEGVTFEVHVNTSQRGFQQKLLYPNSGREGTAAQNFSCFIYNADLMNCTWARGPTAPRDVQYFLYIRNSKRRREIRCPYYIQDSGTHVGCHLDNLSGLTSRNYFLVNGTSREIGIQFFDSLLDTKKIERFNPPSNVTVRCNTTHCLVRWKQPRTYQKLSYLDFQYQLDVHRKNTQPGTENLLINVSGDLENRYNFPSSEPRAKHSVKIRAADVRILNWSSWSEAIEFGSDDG

[3] = biological target: T3, GM-CSF receptor, cognate for the murine GM-CSF constructs (UniProt Q00941 30-327); experiment: as above
T3 construct: also called GM-CSF-Ra; cognate GM-CSF receptor
T3 sequence (looked up): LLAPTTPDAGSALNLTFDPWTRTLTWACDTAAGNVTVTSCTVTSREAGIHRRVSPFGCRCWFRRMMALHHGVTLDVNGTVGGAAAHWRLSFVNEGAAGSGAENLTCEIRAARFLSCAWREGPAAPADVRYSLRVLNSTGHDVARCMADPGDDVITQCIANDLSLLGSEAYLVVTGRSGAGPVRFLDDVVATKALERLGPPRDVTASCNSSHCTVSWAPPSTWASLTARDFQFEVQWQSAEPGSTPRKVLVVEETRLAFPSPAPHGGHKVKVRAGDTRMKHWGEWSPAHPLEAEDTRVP

[4] = biological target: T4, EPO-R (EPO receptor, R&D Systems) (UniProt P19235 25-250); experiment: SPR (Biacore), Fab captured on anti-human F(ab)2, EPO-R injected
T4 sequence (looked up): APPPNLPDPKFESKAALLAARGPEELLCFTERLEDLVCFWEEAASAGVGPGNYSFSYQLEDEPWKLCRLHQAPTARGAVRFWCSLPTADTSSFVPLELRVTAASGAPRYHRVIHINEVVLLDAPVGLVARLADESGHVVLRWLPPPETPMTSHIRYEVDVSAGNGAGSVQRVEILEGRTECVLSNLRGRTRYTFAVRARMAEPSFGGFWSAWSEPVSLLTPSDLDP

[5] = biological target: T5, IL-15-Rα-hFc (R&D Systems) (UniProt Q13261 31-205); experiment: SPR (Biacore), fusion captured from supernatant on anti-human F(ab)2, 100 nM IL-15-Rα injected
T5 construct: Bought reagent; not shown: human Fc (hFc)

[6] = biological target: T1, IL-2-Rβ (IL-2 receptor β chain, R&D …); experiment: SPR (Biacore), fusion captured from supernatant on anti-human F(ab)2, 100 nM IL-2-Rβ injected
[7] = biological target: T6, Human serum albumin (HSA), Jackson ImmunoResearch catalog #009-000-051 (human, UniProt P02768 25-609); experiment: SPR (Biacore), fusion captured from supernatant on anti-human F(ab)2, 1000 nM HSA injected
[8] = biological target: T6, Human serum albumin (HSA), Jackson …; experiment: SPR (Biacore), fusion captured on anti-human F(ab)2, 1000 nM HSA injected alone or with 100 nM G-CSF-Rα
IL-6 (R&D Systems) = IL-6 (R&D Systems) (UniProt P05231 30-212, limits assumed); experiment: SPR (Biacore), fusion captured on anti-human F(ab)2, IL-6 alone injected
[9] = biological target: T1, IL-2-Rβ (IL-2 receptor β chain, R&D …); experiment: SPR (Biacore), fusion captured on anti-human F(ab)2, 100 nM IL-2-sRβ injected, with or without premixed 200 nM IL-15

B2: CA645/IL-15Fwk3 (CA645 Fab with human IL-15 inserted into framework 3 of the VH domain, original linkers) (Fab)
heavy: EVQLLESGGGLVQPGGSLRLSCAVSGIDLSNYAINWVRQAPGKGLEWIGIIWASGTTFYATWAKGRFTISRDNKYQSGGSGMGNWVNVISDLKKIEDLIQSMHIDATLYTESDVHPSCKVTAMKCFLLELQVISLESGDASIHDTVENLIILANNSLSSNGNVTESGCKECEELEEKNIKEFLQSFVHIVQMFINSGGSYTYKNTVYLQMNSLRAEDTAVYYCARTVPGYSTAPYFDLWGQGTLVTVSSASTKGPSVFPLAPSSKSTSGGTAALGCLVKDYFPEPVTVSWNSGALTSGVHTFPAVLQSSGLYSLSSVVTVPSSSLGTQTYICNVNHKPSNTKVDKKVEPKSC
light: DIQMTQSPSSVSASVGDRVTITCQSSPSVWSNFLSWYQQKPGKAPKLLIYEASKLTSGVPSRFSGSGSGTDFTLTISSLQPEDFATYYCGGGYSSISDTTFGGGTKVEIKRTVAAPSVFIFPPSDEQLKSGTASVVCLLNNFYPREAKVQWKVDNALQSGNSQESVTEQDSKDSTYSLSSTLTLSKADYEKHKVYACEVTHQGLSSPVTKSFNRGEC
notes: Tested as HEK293 supernatant diluted 1 in 5, captured on anti-human F(ab)2; also called CA645/IL-15 antibody fusion protein
binding result [5]: binds
binding result [6]: binds
binding result [7]: binds

B3: CA645/G-CSFFwk3 (CA645 Fab with human G-CSF inserted into framework 3 of the VH domain) (Fab)
heavy: EVQLLESGGGLVQPGGSLRLSCAVSGIDLSNYAINWVRQAPGKGLEWIGIIWASGTTFYATWAKGRFTISRDNSGGGGSATPLGPASSLPQSFLLKCLEQVRKIQGDGAALQEKLVSECATYKLCHPEELVLLGHSLGIPWAPLSSCPSQALQLAGCLSQLHSGLFLYQGLLQALEGISPELGPTLDTLQLDVADFATTIWQQMEELGMAPALQPTQGAMPAFASAFQRRAGGVLVASHLQSFLEVSYRVLRHLAQPSGGGGKNTVYLQMNSLRAEDTAVYYCARTVPGYSTAPYFDLWGQGTLVTVSSASTKGPSVFPLAPSSKSTSGGTAALGCLVKDYFPEPVTVSWNSGALTSGVHTFPAVLQSSGLYSLSSVVTVPSSSLGTQTYICNVNHKPSNTKVDKKVEPKSC
light: DIQMTQSPSSVSASVGDRVTITCQSSPSVWSNFLSWYQQKPGKAPKLLIYEASKLTSGVPSRFSGSGSGTDFTLTISSLQPEDFATYYCGGGYSSISDTTFGGGTKVEIKRTVAAPSVFIFPPSDEQLKSGTASVVCLLNNFYPREAKVQWKVDNALQSGNSQESVTEQDSKDSTYSLSSTLTLSKADYEKHKVYACEVTHQGLSSPVTKSFNRGEC
notes: also called CA645/G-CSF antibody fusion protein
binding result [8]: binds

More lines, now with the values ahead:

binding result [1]: no binding (tested: 100 nM)
binding result [2]: no binding (tested: 100 nM)
binding result [3]: no binding (tested: 100 nM)
binding result [4]: no binding (tested: 50 nM)
B1: CA645 Fab (unmodified, wild type, anti-human serum albumin) (Fab, V domains shown)
VH: EVQLLESGGGLVQPGGSLRLSCAVSGIDLSNYAINWVRQAPGKGLEWIGIIWASGTTFYATWAKGRFTISRDNSKNTVYLQMNSLRAEDTAVYYCARTVPGYSTAPYFDLWGQGTLVTVSS
VL: DIQMTQSPSSVSASVGDRVTITCQSSPSVWSNFLSWYQQKPGKAPKLLIYEASKLTSGVPSRFSGSGSGTDFTLTISSLQPEDFATYYCGGGYSSISDTTFGGGTKVEIKR
notes: Control without insert polypeptide; also called unmodified CA645 Fab; wild type CA645 Fab

binding result (IL-6 (R&D Systems)): no binding (tested: 100 nM)
B4: CA645/VHH6Fwk3 (CA645 Fab with camelid VHH6 inserted into framework 3 of the VH domain) (bispecific antibody)
heavy: EVQLLESGGGLVQPGGSLRLSCAVSGIDLSNYAINWVRQAPGKGLEWIGIIWASGTTFYATWAKGRFTISRDNSGGGGSGGGGSDVQFVESGGGSVHAGGSLRLNCATSGYIYSTYCMGWFRQAPGKEREGVAHIYTNSGRTYYADSVKGRFTISQDNAKNTVYLQMNSLKPEDTAIYYCAARPSIRCASFSATEYKDWGQGTQVTVSSGGGGSGGGGSKNTVYLQMNSLRAEDTAVYYCARTVPGYSTAPYFDLWGQGTLVTVSSASTKGPSVFPLAPSSKSTSGGTAALGCLVKDYFPEPVTVSWNSGALTSGVHTFPAVLQSSGLYSLSSVVTVPSSSLGTQTYICNVNHKPSNTKVDKKVEPKSC
light: DIQMTQSPSSVSASVGDRVTITCQSSPSVWSNFLSWYQQKPGKAPKLLIYEASKLTSGVPSRFSGSGSGTDFTLTISSLQPEDFATYYCGGGYSSISDTTFGGGTKVEIKRTVAAPSVFIFPPSDEQLKSGTASVVCLLNNFYPREAKVQWKVDNALQSGNSQESVTEQDSKDSTYSLSSTLTLSKADYEKHKVYACEVTHQGLSSPVTKSFNRGEC
notes: also called CA645/VHH6 antibody fusion protein

binding result [9]: binds
B5: CA645/IL-2Fwk3 (CA645 Fab with human IL-2 inserted into framework 3 of the VH domain) (Fab)
heavy: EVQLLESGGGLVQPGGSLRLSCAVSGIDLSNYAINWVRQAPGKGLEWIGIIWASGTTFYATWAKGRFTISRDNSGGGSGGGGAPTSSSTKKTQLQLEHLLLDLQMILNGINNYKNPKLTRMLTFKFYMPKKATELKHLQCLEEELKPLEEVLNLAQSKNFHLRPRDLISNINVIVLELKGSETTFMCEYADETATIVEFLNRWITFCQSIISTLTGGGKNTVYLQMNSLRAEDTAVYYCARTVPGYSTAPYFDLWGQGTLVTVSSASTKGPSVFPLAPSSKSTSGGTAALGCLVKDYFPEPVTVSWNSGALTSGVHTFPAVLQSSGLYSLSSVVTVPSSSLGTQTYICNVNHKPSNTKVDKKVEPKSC
light: DIQMTQSPSSVSASVGDRVTITCQSSPSVWSNFLSWYQQKPGKAPKLLIYEASKLTSGVPSRFSGSGSGTDFTLTISSLQPEDFATYYCGGGYSSISDTTFGGGTKVEIKRTVAAPSVFIFPPSDEQLKSGTASVVCLLNNFYPREAKVQWKVDNALQSGNSQESVTEQDSKDSTYSLSSTLTLSKADYEKHKVYACEVTHQGLSSPVTKSFNRGEC
notes: also called CA645/IL-2 antibody fusion protein
